Residue numbers refer to the chain shown, from its start. Names may count otherwise. Read-outs that look alike come from different tables or passages of the source.
B1: anti-AVM antibody (antibody, V domains shown)
VH: EVQLVESGGGLVQPGRSLKLSCAASGFTFSNYAMAWVRRAPTKGLEWVASISNGGGNTYYRDSVKGRFTISRDDAKNTLYLQMDSLRSEDTATYYCARHGNYIYYGSFFDYWGQGVMVTVSS
VL: QFVLSQPNSVSTNLGSTVKLSCKRSTGNIGSNYVSWYQQHEGRSPTTMIYRDDKRPDGVPDRFSGSIDRSSDSALLTINNVQTEDEADYFCQSYSSGINIFGGGTKLTVLG
notes: Negative control; also called chimeric anti-Avermectin (AVM) antibody; anti-AVM-IgG4 antibody
B2: iCADM3_3R1-L11 (VHH)
VHH: QVQLVESGGGLVQAGGSLRLSCAASGSIFSFNAMGWYRQAPGKQRGLVAVITSGGYTNYADSVKGRFTITRDNAKNTVYLQMNSLKPEDTAVYYCNAEGVYSDYVIMNYWGQGTQVTVSS
notes: also called iCADM3-3R1-L11 antibody; anti-CADM3 VHH antibody (phage clone)
B3: iCADM3_3R1-L8_04 VHH-hG4PE(R409K) (Fc fusion)
chain: QVQLVESGGGLVQPGGSLRLSCAASGRTFSNYARGWFRQAPGKEREFVAAIDYSGGSTNYADSAKGRFTISRDNSKNTVYLQMNSLRAEDTAVYYCAAPASRRPSWDADGYDYWGQGTLVTVSS
notes: also called iCADM3-3R1-L8_04 humanized antibody; not shown: Hinge-CH2-CH3 region of the human IgG4 heavy chain constant region (IgG4 variant)
B4: iCADM3_3R1-L8_03 VHH-hG4PE(R409K) (Fc fusion)
chain: B3 chain with E44G
notes: also called iCADM3-3R1-L8_03 humanized antibody; not shown: Hinge-CH2-CH3 region of the human IgG4 heavy chain constant region (IgG4 variant)
B5: iCADM3_3R1-L5 (VHH)
VHH: QVQLVESGGGLVQAGGSLRLSCAASGSIVSVNAMGWYRQAPGKQRELVATITSGGSTNYADSAKGRFTISRDNAKNTMYLQMNSLKPEDTAVYYCNGEFWSRRDTRPPGVVNYWGQGTQVTVSS
notes: also called iCADM3-3R1-L5 antibody; anti-CADM3 VHH antibody (phage clone)
B6: iCADM3_3R1-L10 (VHH)
VHH: QVQLVESGGGLVQAGGSLRLSCAASGSIFSIHAMGWYRQAPGKQRELVATVTSGGSTNYADSVKGRFTISRDNAKNTVYLQMNSLKPEDTAVYYCNAETPYYSSTYYTNYWGQGTQVTVSS
notes: also called iCADM3-3R1-L10 antibody; anti-CADM3 VHH antibody (phage clone)

Assays:
mouse CADM3 [1] = target: T1, mouse CADM3 (mouse, UniProt Q99N28 23-396); assay: flow cytometry, 10 ug/mL, mouse CADM3/Expi293F vs parent Expi293F cells
T1 construct: Full-length gene expressed transiently on Expi293F cells; also called mouse CADM3/Expi293F cells; Mouse CADM3-expressing cells
T1 sequence: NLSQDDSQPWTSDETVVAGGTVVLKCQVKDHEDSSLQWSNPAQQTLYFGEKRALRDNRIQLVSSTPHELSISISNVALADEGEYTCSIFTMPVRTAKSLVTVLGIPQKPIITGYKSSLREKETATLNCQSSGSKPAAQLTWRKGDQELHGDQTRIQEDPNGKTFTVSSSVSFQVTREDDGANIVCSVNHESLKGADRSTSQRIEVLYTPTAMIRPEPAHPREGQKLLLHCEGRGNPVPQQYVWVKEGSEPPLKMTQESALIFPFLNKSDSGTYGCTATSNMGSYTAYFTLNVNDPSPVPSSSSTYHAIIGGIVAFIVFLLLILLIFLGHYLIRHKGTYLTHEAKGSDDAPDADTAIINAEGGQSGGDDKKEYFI
Experimental: (§1) After washing with SB, the cells were suspended in SB, and the fluorescence intensity of each cell was measured using a flow cytometer FACS CANTO II (manufactured by Becton, Dickinson and Company). Note that as a negative control, 10 μg/mL of the anti-AVM antibody was used.
(§2) The detection results were analyzed, and a mean fluorescence intensity (MFI) was calculated using a geometric mean. Further, with respect to the MFI when the concentration of each antibody was 10 μg/mL, the ratio of the MFI (mean fluorescence intensity ratio) between the human CADM3/Expi293F cells and the Expi293F cells (parent cell line) was calculated.
(§3) With respect to the produced humanized anti-CADM3 VHH-Fc antibodies, reactivity with Expi293F cells, human CADM3/Expi293F cells, and mouse CADM3/Expi293F cells was analyzed by the same procedure as in Example 3.

mouse CADM3 [2] = target: T1, mouse CADM3; assay: flow cytometry, mouse CADM3/Expi293F vs parent Expi293F cells
mouse CADM3 [3] = target: T1, mouse CADM3; assay: flow cytometry, 10 ug/mL, mouse CADM3/Expi293F vs parent Expi293F cells; remark: listed apart in the source
Experimental: as §1, §2
Further, also with respect to AVM IgG4PE(R409K)_iCADM3_3R1-L5 dVHH, AVM IgG4PE(R409K)_iCADM3_3R1-L8 dVHH, AVM IgG4PE(R409K)_iCADM3_3R1-L10 dVHH, and AVM IgG4PE(R409K)_iCADM3_3R1-L11 dVHH, reactivity with the Expi293F cells, the human CADM3/Expi293F cells, and the mouse CADM3/Expi293F cells was analyzed by the same procedure, and the results are shown in Table 5.

mouse CADM3 [4] = target: T1, mouse CADM3; assay: as above; remark: listed apart in the source
Experimental: as §1, §2, §3

mouse CADM3 [5] = target: T1, mouse CADM3; assay: as above; remark: listed apart in the source
hCADM3-GST [6] = target: T2, hCADM3-GST (human); assay: phage ELISA, hCADM3-GST immobilized
T2 construct: also called extracellular domain of human CADM3 to which GST was added at the C-terminal side; human CADM3-GST
Experimental: (§4) In the ELISA, hCADM3-GST and mCADM3-GST were immobilized (50 ng/50 μL) on MAXISORP (manufactured by NUNC, Inc.), followed by blocking using 0.5% BSA. To each well, each phage clone was added and allowed to react at room temperature for 1 hour, and thereafter, each well was washed 5 times with PBS-T. Subsequently, a biotinylated anti-M13 phage antibody (manufactured by Abcam plc) and horseradish peroxidase-labeled streptavidin (manufactured by Vector Co., Ltd.) were added to each well in an amount of 50 μL, followed by incubation at room temperature for 1 hour.
(§5) After the microplate was washed with PBS-T, a 3,3′,5,5′-tetramethylbenzidine (TMB) chromogenic substrate solution (manufactured by Calbiochem, Inc.) was added to each well, followed by incubation at room temperature. The coloring reaction was stopped by adding a 1 mol/L hydrochloric acid to each well, and an absorbance at a wavelength of 450 nm (reference wavelength: 570 nm) was measured using a microplate reader.

mCADM3-GST [7] = target: T3, mCADM3-GST (mouse); assay: phage ELISA, mCADM3-GST immobilized
T3 construct: also called extracellular domain of mouse CADM3 to which GST was added at the C-terminal side; mouse CADM3-GST
Experimental: as §4, §5

mCADM3-GST [8] = target: T3, mCADM3-GST; assay: SPR (Biacore T-100), antibody captured, mCADM3-GST as analyte
Experimental: (§6) The affinity of the anti-CADM3 antibodies produced in Example 2 for human CADM3 and mouse CADM3 was measured using Biacore T-100 (GE Healthcare). Each of the antibodies was immobilized on a […] sensor chip using a Human antibody Capture kit, and the binding ability was evaluated using hCADM3-GST and mCADM3-GST produced in Example 4 as analytes.
(§7) With respect to the produced humanized anti-CADM3 antibodies, affinity for CADM3 by surface plasmon resonance detection was evaluated by the same procedure as in Example 6.

human CADM3 = target: T4, human CADM3 (human, UniProt Q8N126 25-398); assay: flow cytometry, 10 ug/mL, human CADM3/Expi293F vs parent Expi293F cells
T4 construct: Full-length gene expressed transiently on Expi293F cells; also called cell adhesion molecule 3; human CADM3/Expi293F cells
T4 sequence: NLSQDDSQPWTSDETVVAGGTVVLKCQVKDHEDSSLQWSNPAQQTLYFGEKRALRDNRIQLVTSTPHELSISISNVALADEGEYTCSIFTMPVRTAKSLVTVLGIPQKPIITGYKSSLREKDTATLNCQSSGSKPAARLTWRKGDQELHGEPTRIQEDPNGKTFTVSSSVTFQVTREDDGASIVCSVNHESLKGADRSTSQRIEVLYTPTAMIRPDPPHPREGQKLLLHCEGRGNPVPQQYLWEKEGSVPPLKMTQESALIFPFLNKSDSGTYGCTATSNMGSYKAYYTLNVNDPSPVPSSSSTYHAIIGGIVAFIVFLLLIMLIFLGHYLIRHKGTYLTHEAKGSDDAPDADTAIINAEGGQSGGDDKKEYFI
Experimental: as §1, §2, §3

hCADM3-GST [9] = target: T2, hCADM3-GST; assay: SPR (Biacore T-100), antibody captured, hCADM3-GST as analyte
Experimental: as §6, §7

Binder	Mean fluorescence intensity ratio (mouse CADM3 [1])	binding result (hCADM3-GST [6])	binding result (mCADM3-GST [7])	Kd (mCADM3-GST [8]) [nM]	koff (mCADM3-GST [8]) [s⁻¹]	kon (mCADM3-GST [8]) [M⁻¹ s⁻¹]	Mean fluorescence intensity ratio (human CADM3)	Kd (hCADM3-GST [9]) [nM]	koff (hCADM3-GST [9]) [s⁻¹]	kon (hCADM3-GST [9]) [M⁻¹ s⁻¹]	other results
B1	1.02										binding result (mouse CADM3 [2]): no binding (tested: 10 ug/mL); Mean fluorescence intensity ratio (mouse CADM3 [3]): 1.15; Mean fluorescence intensity ratio (mouse CADM3 [4]): 1.02; Mean fluorescence intensity ratio (mouse CADM3 [5]): 1.07
B2		binds	binds								
B3	9.62			5.22	0.00064	120000	6.2	5.34	0.00078	150000	
B4	8.54			7.38	0.0011	150000	5.65	10.3	0.0019	190000	
B5		binds	binds								
B6		binds	binds								

— patent US20210147541A1 (Kyowa Kirin, published 2021)
